Results taken from PMC5527020.

How the values were obtained:
[1] = system: HCV NS3; assay: magnetic-bead pull-down with q-PCR; conditions: BD buffer: 50 mM NaH2PO4 pH 8.0, 150 mM NaCl, 5 mM KCl, 2 mM MgCl2, 0.05% Tween-20; room temperature, 30 min; aptamer heated to 95 C and cooled at 4 C
[2] = system: Hepatitis B surface antigen (HBs Ag); assay: magnetic-bead pull-down with q-PCR; conditions: BD buffer: 50 mM NaH2PO4 pH 8.0, 150 mM NaCl, 5 mM KCl, 2 mM MgCl2, 0.05% Tween-20; room temperature, 30 min; aptamer heated to 95 C and cooled at 4 C

AGCAGCACAGAGGTCCTGCATCACGAAGCCTGGCAGCGTGCTACCGTGAA [MP-1]
Kd [1]: 23.3 nM
Kd [2]: 28.3 nM
